For 63 molecules, peptide exchange yield results are on record in patent US20170037110A1 (IMMATICS BIOTECHNOLOGIES, published 2017).

The assay has as its target T1, HLA-A*02:01 (human).
T1 construct: monomers captured on streptavidin plates; also called MHC class I
Briefly: UV peptide exchange ELISA. An excerpt:
Candidate peptides for T cell based therapies according to the present invention were further tested for their MHC binding capacity (affinity). The individual peptide-MHC complexes were produced by UV-ligand exchange, where a UV-sensitive peptide is cleaved upon UV-irradiation, and exchanged with the peptide of interest as analyzed. Only peptide candidates that can effectively bind and stabilize the peptide-receptive MHC molecules prevent dissociation of the MHC complexes. To determine the yield of the exchange reaction, an ELISA was performed based on the detection of the light chain (p2m) of stabilized MHC complexes.
96 well MAXISorp plates (NUNC) were coated over night with 2 μg/ml streptavidin in PBS at room temperature, washed 4× and blocked for 1 h at 37° C. in 2% BSA containing blocking buffer. […] Peptide-MHC monomers of the UV-exchange reaction were diluted 100 fold in blocking buffer. Samples were incubated for 1h at 37° C., washed four times, incubated with 2 μg/ml HRP conjugated anti-p2m for 1h at 37° C., washed again and detected with TMB solution that is stopped with […]. Absorption was measured at 450 nm.
Background: ELISA stands for enzyme-linked immunosorbent assay.

As to LLLDITPEI, the peptide exchange yield was at least 75%.

YVWGFYPAEV gave a peptide exchange yield of 50 to 75%.

ALVSKGLATV: the peptide exchange yield was in the range of 20 to 50%.

SVIPQIQKV showed a peptide exchange yield of 50 to 75%.

Turning to NLLELFVQL, the peptide exchange yield fell in the range of 50 to 75%.

SLINGSFLV registered a peptide exchange yield of 50 to 75%.

As for GIMEHITKI, the peptide exchange yield is at least 75%.

The molecule YLADPSNLFVV displayed a peptide exchange yield of 50 to 75%.

On to GLLPTPLFGV, for which the peptide exchange yield fell in the range of 50 to 75%.

YLFESEGLVL displayed a peptide exchange yield of 50 to 75%.

ALFPGVALLLA registered a peptide exchange yield of at least 75%.

As to YIFTDNPAAV, the peptide exchange yield was in the range of 50 to 75%.

FLQPVDDTQHL gave a peptide exchange yield of 50 to 75%.

Molecule LLQAIKLYL yielded a peptide exchange yield of 20 to 50%.

As for KILQQLVTL, the peptide exchange yield was in the range of 50 to 75%.

YLDFSNNRL gave a peptide exchange yield of 20 to 50%.

For FVPPVTVFPSL, the peptide exchange yield fell in the range of 20 to 50%.

Molecule YLFDDPLSAV displayed a peptide exchange yield of 20 to 50%.

In turn, KIGDEPPKV registered a peptide exchange yield of 20 to 50%.

Take SLATAGDGLIEL: the peptide exchange yield was in the range of 20 to 50%.

SVMEVNSGIYRV came in with a peptide exchange yield of 50 to 75%.

With IILSILEQA, the peptide exchange yield is at least 75%.

Take LIIDQADIYL: the peptide exchange yield fell in the range of 50 to 75%.

For TLAEEVVAL, the peptide exchange yield fell in the range of 50 to 75%.

ALLGIPLTLV registered a peptide exchange yield of 50 to 75%.

With YLIDIKTIAI, the peptide exchange yield was 20 to 50%.

The molecule FLATSGTLAGI yielded a peptide exchange yield of 20 to 50%.

RLWEEGEELEL registered a peptide exchange yield of 50 to 75%.

As to VQIHQVAQV, the peptide exchange yield lay in the range of 50 to 75%.

Consider KLIDNNINV, for which the peptide exchange yield fell in the range of 50 to 75%.

In turn, ALNPEIVSV yielded a peptide exchange yield of 20 to 50%.

AIAGAGILYGV: the peptide exchange yield lay within 20 to 50%.

The molecule YIMEPSIFNTL showed a peptide exchange yield of 50 to 75%.

In the case of ILPDGEDFLAV, the peptide exchange yield is 50 to 75%.

Consider VLAYFLPEA, for which the peptide exchange yield is at least 75%.

Regarding GVVDPRAISVL, the peptide exchange yield lay within 20 to 50%.

Regarding LLYDAVHIVSV, the peptide exchange yield was in the range of 50 to 75%.

On to SLLEAVSFL, for which the peptide exchange yield lay within 50 to 75%.

The molecule NLWDLTDASVV displayed a peptide exchange yield of 50 to 75%.

In turn, YLQELIFSV had a peptide exchange yield of 50 to 75%.

In turn, VLVSDGVHSV displayed a peptide exchange yield of 50 to 75%.

With SLASKLTTL, the peptide exchange yield was at least 75%.

Molecule FLWNGEDSALL gave a peptide exchange yield of 50 to 75%.

The molecule FLFATPVFI yielded a peptide exchange yield of 50 to 75%.

Molecule LLVEQPPLAGV yielded a peptide exchange yield of 50 to 75%.

On to TLVLTLPTV, for which the peptide exchange yield is at least 75%.

With YMDAPKAAL, the peptide exchange yield fell in the range of 20 to 50%.

As to YLLSTNAQL, the peptide exchange yield is at least 75%.

With YHIDEEVGF, the peptide exchange yield fell in the range of 10 to 20%.

The molecule ALSEVDFQL returned a peptide exchange yield of 50 to 75%.

Regarding YQYPRAILSV, the peptide exchange yield is 50 to 75%.

Regarding SLLEADPFL, the peptide exchange yield was in the range of 50 to 75%.

ALYETELADA gave a peptide exchange yield of 20 to 50%.

Regarding GLLDGGVDILL, the peptide exchange yield fell in the range of 50 to 75%.

As for FLYIGDIVSL, the peptide exchange yield was at least 75%.

FLSQVDFEL: the peptide exchange yield is 50 to 75%.

In the case of HLTEVYPEL, the peptide exchange yield was 50 to 75%.

Molecule STMEQNFLL registered a peptide exchange yield of at least 75%.

With SLMEPPAVLLL, the peptide exchange yield lay within 50 to 75%.

ILVGGGALATV: the peptide exchange yield was in the range of 50 to 75%.

For the molecule KVLSNIHTV, the peptide exchange yield was in the range of 20 to 50%.

The molecule SLVGEPILQNV registered a peptide exchange yield of 20 to 50%.

For the molecule FLLAEDDIYL, the peptide exchange yield was in the range of 50 to 75%.
